Laboratory results taken from US20260234660A1 (Regeneron, published 2026).
Read-outs that look alike come from different tables or passages of the source. One block for each binder: values may come before it.

What was measured:
[1] = biological target: T1, human CACNG1, cell surface-expressed (human, UniProt Q06432 1-222); experiment: cell-based or functional assay
[2] = biological target: T1, human CACNG1, cell surface-expressed; experiment: cell-based or functional assay; remark: listed apart in the source
[3] = biological target: T1, human CACNG1, cell surface-expressed; experiment: cell-based or functional assay; remark: listed apart in the source
[4] = biological target: T1, human CACNG1, cell surface-expressed; experiment: cell-based or functional assay; remark: listed apart in the source
[5] = biological target: T1, human CACNG1, cell surface-expressed; experiment: cell-based or functional assay; remark: listed apart in the source
[6] = biological target: T1, human CACNG1, cell surface-expressed; experiment: cell-based or functional assay; remark: listed apart in the source
[7] = biological target: T1, human CACNG1, cell surface-expressed; experiment: cell-based or functional assay; remark: listed apart in the source
[8] = biological target: T1, human CACNG1, cell surface-expressed; experiment: cell-based or functional assay; remark: listed apart in the source
[9] = biological target: T1, human CACNG1, cell surface-expressed; experiment: cell-based or functional assay; remark: listed apart in the source
[10] = biological target: T2, mouse CACNG1 on myofibers of wildtype mice (mouse, UniProt O70578 1-223); experiment: immunofluorescence on live single myofibers ex vivo (wildtype mice), fluorescent secondary antibody, confocal imaging
T2 construct: whole, on cells; Target inferred from the cells: the wildtype myofibers carry mouse CACNG1, which the CACNG1^Hu/Hu mice have replaced by human CACNG1; also called wildtype (WT) myofibers
T2 sequence (looked up): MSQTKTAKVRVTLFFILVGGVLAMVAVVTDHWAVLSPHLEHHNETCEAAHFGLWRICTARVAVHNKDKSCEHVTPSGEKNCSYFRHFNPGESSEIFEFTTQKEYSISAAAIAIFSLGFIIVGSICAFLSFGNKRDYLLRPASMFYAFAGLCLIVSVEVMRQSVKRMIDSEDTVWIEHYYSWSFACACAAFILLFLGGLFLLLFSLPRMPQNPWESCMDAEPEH
Description: Single myofibers were isolated from either wildtype mice, mice that were homozygous for the deletion of CACNG1 (referred to as CACNG1 knockout mice), or mice that were homozygous for the expression of human CACNG1 in place of mouse CACNG1 (referred to as CACNG1^{Hu/Hu}). The gastrocnemius muscle was removed, collagenase digested, and single myofibers were isolated, washed, and incubated overnight at 37° C. at 5% C02, in DMEM+10% horse serum. […] Myofibers were then washed twice in DMEM+10% horse serum, and subsequently incubated with 10 ug/mL of fluorescent-conjugated secondary antibodies for 30 minutes, washed twice in DMEM+10% horse serum, and then fixed with 4% paraformaldehyde (PFA) for 15 minutes at room temperature. Single fibers were then washed twice with PBS, stained with Hoechst for 5 minutes, washed once more with PBS, then transferred to microscope slides, coverslipped, and imaged using a Zeiss LSM 710 confocal microscope.

[11] = biological target: T3, nanodisc embedded human CACNG1 expressed with a C-terminal PADRE-Flag-His tag (human, UniProt Q06432 1-222); experiment: SPR (Biacore T200), 25 C, anti-His-captured human CACNG1 nanodisc, antibody as analyte
T3 construct: Membrane protein (gamma-1 subunit of the skeletal muscle L-type calcium channel) in a nanodisc; also called human CACNG1 nanodisc; CACNG1 nanodisc; not shown: C-terminal PADRE-Flag-His tag
Description: Equilibrium dissociation constants (KD values) for nanodisc embedded human CACNG1 expressed with a C-terminal PADRE-Flag-His tag (human CACNG1 nanodisc) binding to purified anti-hCACNG1 antibodies were determined using a real-time surface plasmon resonance biosensor technology with a Biacore T200 instrument. The CM5 Biacore sensor surface was derivatized by amine coupling with a monoclonal mouse anti-His antibody (Cytiva; Marlborough, MA). All Biacore binding studies were performed in a buffer composed of 0.01M HEPES, 0.15M NaCl, 1 mM CaCl₂), 0.5 mM MgCl₂, pH 7.4 (HBS-N++ running buffer). Different concentrations of anti-hCACNG1 antibodies (ranging from 300 nM to 12 nM in 5-fold serial dilutions) prepared in HBS-N++ running buffer were injected over the captured human CACNG1 nanodisc at a flow rate of 30 μL/minute. Antibody association was monitored for 2 minutes while dissociation was monitored in HBS-N++ running buffer for 5 minutes. At the end of each cycle, the human CACNG1 nanodisc capture surface was regenerated using three 10 second injections of 10 mM Gly pH1.5. All binding kinetics experiments were performed at 25° C.

T1 sequence (Q06432 whole entry): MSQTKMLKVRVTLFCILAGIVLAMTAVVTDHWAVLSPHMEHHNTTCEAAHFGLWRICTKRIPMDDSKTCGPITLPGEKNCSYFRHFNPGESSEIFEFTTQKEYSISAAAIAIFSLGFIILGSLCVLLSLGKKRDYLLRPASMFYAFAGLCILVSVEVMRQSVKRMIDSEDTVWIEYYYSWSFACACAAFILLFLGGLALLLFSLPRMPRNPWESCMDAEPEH
T3 sequence (Q06432 whole entry): as above

B1: REGN14570-M3004 (antibody, V domains shown)
VH: QVQLQQWGAGLLKPSATLSRTCAVYGGSFSGYYWNWIRQSPGKGLEWIGEILHSGRTNYNPSLKSRVTISVDTSKNQFSLKLTSVTAADTAVYYCAGRIAARHGWFDPWGQGTLVTVSS
VL: DIQMTQSPSSVSTSVGDRVTISCRASQDIRKWLAWYQQKPGKAPKLLIYATSSLQSGVPSRFSGSGSGTDFTLTISSLQPEDFATYFCQQANSFPFTFGQGTKLEIKR
EC50; androgen receptor luciferase reporter (RLU), hCACNG1.AR.Luc LNCaP cells, 48 hours [1]: 5.83 nM
EC50; androgen receptor luciferase reporter (RLU), hCACNG1.AR.Luc LNCaP cells, 24 hours [2]: 2 nM
EC50; androgen receptor luciferase reporter (RLU), hCACNG1.AR.Luc LNCaP cells, 72 hours [3]: 6.65 nM

B2: REGN14572-M3004 (antibody, V domains shown)
VH: QVQLVESGGGVVQPGRSLRLSCAASGFTFSTYGMHWVRQAPGKGLEWVAVIWHDGSDKYYVDSVKGRFSIARDNSKNTLYLQMNSLRVEDTGIYYCARRGIRGTVFDHWGLGTLVTVSS
VL: DIQMTQSPSTLSASVGDRVTLTCRASQSISNKLAWYQQKPGKAPNLLIYKASNLESGVPSRFSGSGSGTEFTLTISSLQPDDFATYYCQQYNSYSWTFGQGTKVEIKR
EC50; androgen receptor luciferase reporter (RLU), hCACNG1.AR.Luc LNCaP cells, 48 hours [1]: 11.9 nM
EC50; androgen receptor luciferase reporter (RLU), hCACNG1.AR.Luc LNCaP cells, 24 hours [2]: 11.2 nM
EC50; androgen receptor luciferase reporter (RLU), hCACNG1.AR.Luc LNCaP cells, 72 hours [3]: 10.3 nM

B3: REGN14573-M3004 (antibody, V domains shown)
VH: EVQLVESGGNLVQPGGSLRLSCAASGFTFTSHAMNWVRQAPGKGLEWVSVITGRGFDTHYADSVKGRFTISRDISKNTLYLQMNSLRAEDTAVYYCAKGLYDSGNYYIDYWGQGTLVTVSS
VL: QSVLTQPPSVSAAPGQKVTISCSGSSSNIGNNYVSWYQQLPGTAPKLLIYDNNKRPSGIPDRFSGSKSGTSATLGITGLQTGDEADYYCGTWDLSLSFNWVFGGGTKLTVLG
modifications: N180Q in the constant region; linker-payload M3004 (VC-PAB linker, DHT), DAR ~4
EC50; androgen receptor luciferase reporter (RLU), hCACNG1.AR.Luc LNCaP cells, 24 hours [4]: 214 nM
EC50; androgen receptor luciferase reporter (RLU), hCACNG1.AR.Luc LNCaP cells, 72 hours [5]: 185 nM
EC50; androgen receptor luciferase reporter (RLU), hCACNG1.AR.Luc LNCaP cells, 48 hours [6]: 213 nM

B5: REGN5972-M3004 (antibody, V domains shown)
VH: QVQLVESGGGVVQPGRSLRLSCTASGFTFRSYGMHWVRQAPGKGLEWVSVIWIDGNNIYYADSVKGRFTISRDNSKNTLYLQMDSLRAEDTAVYYCARRLAITSAAPFDYWGQGTLVTVSS
VL: not shown
modifications: N180Q in the constant region (heading of the 2nd table, row 736); linker-payload M3004 (VC-PAB linker, DHT)
EC50; androgen receptor luciferase reporter (RLU), hCACNG1.AR.Luc LNCaP cells, 72 hours [7]: 7.79 nM
EC50; androgen receptor luciferase reporter (RLU), hCACNG1.AR.Luc LNCaP cells, 24 hours [8]: 19 nM
EC50; androgen receptor luciferase reporter (RLU), hCACNG1.AR.Luc LNCaP cells, 48 hours [9]: 6.49 nM

B7: H2aM31944N (antibody, mouse IgG2a, kappa, V domains shown)
VH: QVQLVESGGGVVQPGRSLRLSCEASGITFRNYGMHWVRQAPGKGLEWVAVMWYDGSNKYYADSVKGRFTISRDNSKNTVYLQMNSLRAEDTAVYYCARRGHIATAAPFDYWGQGTLVTVSS
VL: DIQMTQSPSSLSASVGDRVTISCRASQSISSYLNWYQQKPGKAPKVLMYAASSLQSGVPSRFSGSGSGTDFTLTISSLQPEDFATYYCQQSYSTPPITFGQGTRLEIKR
notes: also called antibody designation 6
mAb Bound at 300 nM (RU) [11]: 16 RU

Second part, the binder after the results:

EC50; androgen receptor luciferase reporter (RLU), hCACNG1.AR.Luc LNCaP cells, 24 hours [4]: 6.75 nM
EC50; androgen receptor luciferase reporter (RLU), hCACNG1.AR.Luc LNCaP cells, 72 hours [5]: 7.36 nM
EC50; androgen receptor luciferase reporter (RLU), hCACNG1.AR.Luc LNCaP cells, 48 hours [6]: 6.04 nM
B4: REGN14647-M3004 (antibody, V domains shown)
VH: QVQLVESGGGVVQPGRSLRLSCTASGITFRNYGMHWVRQAPGKGLEWVAVMWYDGSNKYYADSVKGRFTISGDNSKVYLQMNSLRAEDTAVYYCARRGTIRTAAPFDYWGQGTLVTVSS
VL: not shown
modifications: N180Q in the constant region; linker-payload M3004 (VC-PAB linker, DHT), DAR ~4

binding result [10]: no binding (tested: 100 nM)
mAb Bound at 300 nM (RU) [11]: 14 RU
B6: H4H31265P2/REGN5972 (antibody, V domains shown)
VH: QVQLVESGGGVVQPGRSLRLSCTASGFTFRSYGMHWVRQAPGKGLEWVSVIWIDGNNIYYADSVKGRFTISRDNSKNTLYLQMDSLRAEDTAVYYCARRLAITSAAPFDYWGQGTLVTVSS
VL: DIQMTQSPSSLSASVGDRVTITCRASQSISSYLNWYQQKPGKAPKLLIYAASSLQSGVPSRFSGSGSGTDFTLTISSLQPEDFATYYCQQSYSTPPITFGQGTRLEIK
notes: also called antibody designation 7

binding result [10]: no binding (tested: 100 nM)
B8: H1M31941N (antibody, mouse IgG1, kappa, V domains shown)
VH: QVQLVQSGAEVKKPGASVKVSCKASGYAFTTYGITWVRQAPGQGLEWMGWISAYNGNTNYAEKVQGRFTMTTDTSTNTAYMELRSLRSDDTAVYFCARKGHYGSGTYYNPFGFDFWGQGTMVTVSS
VL: EIMLMQSPGTLSLSPGERATLSCRASQSVSSSYLAWYQQKPGQAPRLLIYGASSRATDIPDRFSGSGSGTDFTLTISRLEPEDFAVYFCQQYYGSPWTFGQGTKVEIKR
notes: also called antibody designation 8
